Assay results taken from patent US20190192675A1 (Merck Sharp & Dohme, published 2019).
Non-standard residues stand in square brackets, D forms with d. No end group written: not given here. Lys(N3) = [N-]=[N+]=NCCCC[C@H](N)C(=O)O; Aib = CC(C)(N)C(=O)O

B1: PEP88 (peptide)
peptide: HXQGTFTSDKSKYLDERAAQDFVXWLLDT
modifications: D-Ser (s) at 2; Nle(εN3) at 24; C-terminal amide
B2: PEP87 (peptide)
peptide: HXQGTFTSDKSKYLDERAAQDFVXWLLDT
modifications: D-Ser (s) at 2; K(γEγEC16) at 10; Nle(εN3) at 24; C-terminal amide
B3: PEP89 (peptide)
peptide: H[Aib]QGTFTSDKSKYLD[Aib]RAAQDFVQWLMNTKQ[Lys(N3)]-NH2

How the values were obtained:
[1] = molecular target: human GLP-1 receptor (GLP1R) (human, UniProt P43220 24-463); test: cell-based or functional assay
human GLP-1 receptor (GLP1R), sequence (P43220 24-463): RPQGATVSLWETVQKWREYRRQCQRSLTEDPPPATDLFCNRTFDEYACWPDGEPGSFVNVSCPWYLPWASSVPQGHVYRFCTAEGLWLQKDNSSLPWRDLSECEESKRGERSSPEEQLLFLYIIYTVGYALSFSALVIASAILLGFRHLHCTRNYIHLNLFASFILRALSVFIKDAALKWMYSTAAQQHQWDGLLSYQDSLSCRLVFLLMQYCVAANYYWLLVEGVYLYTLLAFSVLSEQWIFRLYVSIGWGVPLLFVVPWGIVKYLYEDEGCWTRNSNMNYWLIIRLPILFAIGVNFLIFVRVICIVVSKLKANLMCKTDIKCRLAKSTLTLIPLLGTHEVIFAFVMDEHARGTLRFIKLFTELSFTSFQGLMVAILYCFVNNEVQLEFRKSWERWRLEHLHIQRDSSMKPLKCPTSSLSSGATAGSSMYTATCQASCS

[2] = molecular target: human Glucagon receptor (GCGR) (human, UniProt P47871 26-477); test: cell-based or functional assay

| Binder | hGLP1R EC50 (nM), cAMP activity assay [1] | hGCGR_EC50 (nM), cAMP activity assay [2] |
| --- | --- | --- |
| B1 | 0.09 nM | 0.093 nM |
| B2 |  | 0.019 nM |
| B3 | 0.044 nM | 3.9 nM |
